Measured values from the Immune Epitope Database (IEDB).

Legend:
HLA-A*03:01 [1] = assay: IEDB peptide-MHC binding, purified MHC/competitive/fluorescence; filed as Kd, often an IC50 or EC50 that approximates it; ≥ and ≤ were set here for values at or beyond the usual limits of such assays; conditions: source organism: Shigella flexneri 2a str. 301
HLA-B*53:01 = assay: IEDB peptide-MHC binding, purified MHC/competitive/radioactivity; filed as Kd, often an IC50 or EC50 that approximates it; ≥ and ≤ were set here for values at or beyond the usual limits of such assays; conditions: source organism: Dengue virus 3 Martinique/1243/1999
HLA-B*35:01 = assay: as above; conditions: source organism: Dengue virus 3 Martinique/1243/1999
HLA-B*08:01 [2] = assay: as above
HLA-A*02:03 = assay: as above; conditions: source organism: Dengue virus 1 Brazil/97-11/1997
HLA-B*57:01 = assay: as above
HLA-B*54:01 = assay: as above; conditions: source organism: Mammarenavirus lassaense
HLA-A*02:01 [3] = assay: IEDB peptide-MHC binding, purified MHC/competitive/fluorescence; ≥ and ≤ were set here for values at or beyond the usual limits of such assays
HLA-A*24:02 = assay: as above
HLA-B*44:02 = assay: IEDB peptide-MHC binding, purified MHC/direct/fluorescence; filed as Kd, often an IC50 or EC50 that approximates it; ≥ and ≤ were set here for values at or beyond the usual limits of such assays
HLA-B*08:01 [4] = assay: as above
HLA-A*11:01 [5] = assay: as above
HLA-B*58:01 = assay: as above
HLA-A*02:01 [6] = assay: as above
HLA-B*07:02 = assay: as above
HLA-B*40:01 = assay: as above
HLA-A*69:01 = assay: as above
HLA-A*31:01 = assay: as above
HLA-A*01:01 = assay: as above
HLA-B*15:01 [7] = assay: as above
HLA-A*03:01 [8] = assay: as above
HLA-A*26:01 = assay: as above
HLA-B*27:05 = assay: as above
HLA-A*24:03 = assay: as above; conditions: source organism: Giardia lamblia ATCC 50803
HLA-A*32:01 = assay: IEDB peptide-MHC binding, purified MHC/competitive/radioactivity; filed as Kd, often an IC50 or EC50 that approximates it; ≥ and ≤ were set here for values at or beyond the usual limits of such assays; conditions: source organism: Vaccinia virus WR
HLA-A*11:01 [9] = assay: IEDB peptide-MHC binding, purified MHC/competitive/fluorescence; ≥ and ≤ were set here for values at or beyond the usual limits of such assays
HLA-A*02:01 [10] = assay: IEDB peptide-MHC binding, purified MHC/competitive/fluorescence; filed as Kd, often an IC50 or EC50 that approximates it; ≥ and ≤ were set here for values at or beyond the usual limits of such assays; conditions: source organism: Yersinia bercovieri ATCC 43970
HLA-B*15:01 [11] = assay: as above; conditions: source organism: Yersinia bercovieri ATCC 43970
HLA-B*39:01 = assay: as above; conditions: source organism: Yersinia bercovieri ATCC 43970
HLA-B*15:01 [12] = assay: IEDB peptide-MHC binding, purified MHC/competitive/radioactivity; filed as Kd, often an IC50 or EC50 that approximates it; ≥ and ≤ were set here for values at or beyond the usual limits of such assays; conditions: source organism: Dengue virus 1 Brazil/97-11/1997
[13] = source organism: Dengue virus 1 Brazil/97-11/1997
[14] = source organism: Vaccinia virus WR
[15] = source organism: Vibrio parahaemolyticus
[16] = source organism: Giardia lamblia ATCC 50803
[17] = source organism: Zaire ebolavirus
[18] = source organism: Shigella flexneri

Sequence: VVLDLFARK
- Kd (HLA-A*03:01 [1]): 0.175 µM

Sequence: EPWLKNNQF
- Kd (HLA-B*53:01): 2.58 µM
- Kd (HLA-B*35:01): 1.03 µM

Sequence: GLNSRSTSL
- Kd (HLA-B*08:01 [2]; [13]): 0.0147 µM
- Kd (HLA-A*02:03): 0.0164 µM

Sequence: WFSRENSYSG
- Kd (HLA-B*57:01; source organism: Dengue virus 3 Martinique/1243/1999): 7 µM

Sequence: VLRTKITSL
- Kd (HLA-B*08:01 [2]; [14]): 0.00092 µM

Sequence: MCISLSTAI
- Kd (HLA-B*54:01): 0.601 µM

Sequence: ALMRRIAVV
- Kd (HLA-B*08:01 [2]; [14]): 1.35 µM

Sequence: LNLSKFMMV
- Kd (HLA-B*08:01 [2]; [14]): 0.102 µM

Sequence: VMLIGIEIL
- IC50 (HLA-A*02:01 [3]; [14]): 0.161 µM
- IC50 (HLA-A*24:02; [14]): 37.6 µM

Sequence: EEDLPVTWR
- Kd (HLA-B*44:02; [15]): ≥ 20 µM
- Kd (HLA-B*08:01 [4]; [15]): ≥ 20 µM
- Kd (HLA-A*11:01 [5]; [15]): ≥ 20 µM
- Kd (HLA-B*58:01; [15]): ≥ 20 µM
- Kd (HLA-A*02:01 [6]; [15]): ≥ 20 µM
- Kd (HLA-B*07:02; [15]): ≥ 20 µM
- Kd (HLA-B*40:01; [15]): ≥ 20 µM
- Kd (HLA-A*69:01; [15]): ≥ 20 µM
- Kd (HLA-A*31:01; [15]): ≥ 20 µM
- Kd (HLA-A*01:01; [15]): ≥ 20 µM
- Kd (HLA-B*15:01 [7]; [15]): ≥ 20 µM
- Kd (HLA-A*03:01 [8]; [15]): ≥ 20 µM
- Kd (HLA-A*26:01; [15]): ≥ 20 µM
- Kd (HLA-B*27:05; [15]): ≥ 20 µM

Sequence: RTDPVIDNI
- Kd (HLA-B*44:02; [16]): ≥ 20 µM
- Kd (HLA-B*08:01 [4]; [16]): ≥ 20 µM
- Kd (HLA-A*11:01 [5]; [16]): ≥ 20 µM
- Kd (HLA-A*02:01 [6]; [16]): ≥ 20 µM
- Kd (HLA-A*24:03): 2.75 µM
- Kd (HLA-B*07:02; [16]): ≥ 20 µM
- Kd (HLA-B*40:01; [16]): ≥ 20 µM
- Kd (HLA-A*69:01; [16]): ≥ 20 µM
- Kd (HLA-A*31:01; [16]): ≥ 20 µM
- Kd (HLA-B*15:01 [7]; [16]): ≥ 20 µM
- Kd (HLA-A*03:01 [8]; [16]): ≥ 20 µM
- Kd (HLA-A*26:01; [16]): ≥ 20 µM
- Kd (HLA-B*27:05; [16]): ≥ 20 µM

Sequence: RSMYRIPPF
- Kd (HLA-B*08:01 [2]; [14]): 0.157 µM
- Kd (HLA-A*32:01): 0.000726 µM

Sequence: SETAGNNNT
- IC50 (HLA-A*11:01 [9]; [17]): ≥ 363 µM
- IC50 (HLA-A*02:01 [3]; [17]): ≥ 98.4 µM

Sequence: WQMFMKVTV
- Kd (HLA-A*02:01 [10]): 0.0156 µM
- Kd (HLA-B*15:01 [11]): 1.29 µM
- Kd (HLA-B*39:01): 0.389 µM

Sequence: VVISKKDTY
- Kd (HLA-B*44:02; [18]): ≥ 20 µM
- Kd (HLA-B*08:01 [4]; [18]): ≥ 20 µM
- Kd (HLA-A*11:01 [5]; [18]): 2.96 µM
- Kd (HLA-B*58:01; [18]): ≥ 20 µM
- Kd (HLA-A*02:01 [6]; [18]): ≥ 20 µM
- Kd (HLA-B*07:02; [18]): ≥ 20 µM
- Kd (HLA-B*40:01; [18]): ≥ 20 µM
- Kd (HLA-A*69:01; [18]): ≥ 20 µM
- Kd (HLA-A*31:01; [18]): 5.5 µM
- Kd (HLA-A*01:01; [18]): ≥ 20 µM
- Kd (HLA-B*15:01 [7]; [18]): ≥ 20 µM
- Kd (HLA-A*03:01 [8]; [18]): ≥ 20 µM
- Kd (HLA-A*26:01; [18]): 6.93 µM
- Kd (HLA-B*27:05; [18]): ≥ 20 µM

Sequence: ATRLENIMW
- Kd (HLA-B*57:01; [13]): 0.00231 µM

Sequence: DAVLYYHMM
- IC50 (HLA-A*24:02; [17]): 3.14 µM

Sequence: IMAIGIVSIL
- Kd (HLA-B*08:01 [2]; [13]): 0.445 µM
- Kd (HLA-B*15:01 [12]): 0.0272 µM

Sequence: RASFIEVKTC
- Kd (HLA-B*57:01; [13]): 0.0537 µM

Sequence: VPFIRNPNK
- IC50 (HLA-A*11:01 [9]; [14]): 47.2 µM
